{
  "source": "paper PMC11662687",
  "about": "“Molecular basis of the phosphorothioation-sensing antiphage defense system IscS–DndBCDE–DndI” (Nucleic Acids Research, 2024)",
  "key": {"DndI [1]": {"molecular_target": "T1, DndI (Salmonella enterica, UniProt E2D680)", "assay": "nucleoside triphosphatase assay", "assay_type": "biochemical", "set-up": "gene A6E75_01280; full length (residues 1-596); homodimer in crystal; 1,788 bp dndI fragment cloned for FRET construct, but ORF printed elsewhere as 1,971 bp", "conditions": "r3.1 buffer, 10 mM MgCl2, pH 7.9, 37 °C; without or with phosphorothioate pUC19 DNA buffer presumed"}, "DndI [2]": {"molecular_target": "T1, DndI", "set-up": "gene A6E75_01280", "conditions": "r3.1 buffer, 10 mM MgCl2, pH 7.9, 37 °C; without or with phosphorothioate pUC19 DNA"}, "DndI R87A": {"molecular_target": "DndI R87A (Salmonella enterica serovar Cerro 87, UniProt E2D680 1-596, R87A)", "assay": "EMSA", "conditions": "protein: recombinant; tags: His (pET28a); blunt"}, "DndI [3]": {"molecular_target": "T2, DndI (Salmonella enterica serovar Cerro 87, UniProt E2D680 1-596)", "T2 sequence": "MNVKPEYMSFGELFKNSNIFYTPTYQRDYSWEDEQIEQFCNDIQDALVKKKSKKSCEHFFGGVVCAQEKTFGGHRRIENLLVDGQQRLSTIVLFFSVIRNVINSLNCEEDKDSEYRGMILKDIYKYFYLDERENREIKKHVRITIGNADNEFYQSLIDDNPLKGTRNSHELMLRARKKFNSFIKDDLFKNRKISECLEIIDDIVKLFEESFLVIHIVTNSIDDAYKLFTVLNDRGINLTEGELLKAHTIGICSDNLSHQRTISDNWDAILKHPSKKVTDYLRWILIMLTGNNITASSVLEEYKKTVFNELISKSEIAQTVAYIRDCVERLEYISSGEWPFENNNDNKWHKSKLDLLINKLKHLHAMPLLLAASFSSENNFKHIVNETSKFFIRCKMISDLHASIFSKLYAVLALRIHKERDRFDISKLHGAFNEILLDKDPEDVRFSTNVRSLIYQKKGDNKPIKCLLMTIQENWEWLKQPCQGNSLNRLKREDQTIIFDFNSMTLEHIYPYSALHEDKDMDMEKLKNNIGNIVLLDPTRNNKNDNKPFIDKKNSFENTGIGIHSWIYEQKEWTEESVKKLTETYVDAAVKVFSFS", "assay": "EMSA; EMSA: 100 nM 70 bp DNA, 10 uL, NEB r3.1 buffer (composition and pH not given), 4 C, 1 h, 6% polyacrylamide gel", "conditions": "protein: recombinant; tags: His (pET28a); chain copies: 2; blunt"}, "DndI CTD": {"molecular_target": "T3, DndI CTD (Salmonella enterica serovar Cerro 87, UniProt E2D680 239-596)", "T3 sequence": "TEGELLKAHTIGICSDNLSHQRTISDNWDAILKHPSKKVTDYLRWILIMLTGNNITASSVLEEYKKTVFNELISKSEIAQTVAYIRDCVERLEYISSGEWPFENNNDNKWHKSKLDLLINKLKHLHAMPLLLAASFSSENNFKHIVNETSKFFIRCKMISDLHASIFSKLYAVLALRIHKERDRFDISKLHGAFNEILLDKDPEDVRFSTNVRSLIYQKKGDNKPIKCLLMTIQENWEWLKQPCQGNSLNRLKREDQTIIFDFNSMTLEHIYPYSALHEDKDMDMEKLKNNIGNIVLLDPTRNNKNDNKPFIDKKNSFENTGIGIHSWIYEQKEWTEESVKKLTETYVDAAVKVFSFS", "assay": "EMSA; EMSA: 100 nM 70 bp DNA, 10 uL, NEB r3.1 buffer (composition and pH not given), 4 C, 1 h, 6% polyacrylamide gel", "conditions": "protein: recombinant; tags: His (pET28a); blunt"}},
  "data": [
    {"molecule": "Nc1nc2c(ncn2[C@@H]2O[C@H](COP(=O)(O)OP(=O)(O)OP(=O)(O)O)[C@@H](O)[C@H]2O)c(=O)[nH]1", "note": "[GTP]", "values": [
      {"measurement": "nucleoside triphosphatase assay", "setting": "DndI [1]", "value": "DndI demonstrated weak hydrolytic capabilities with regard to GTP, CTP and UTP"}
    ]},
    {"molecule": "Nc1ncnc2c1ncn2[C@@H]1O[C@H](COP(=O)(O)OP(=O)(O)OP(=O)(O)O)[C@@H](O)[C@H]1O", "note": "[ATP]", "values": [
      {"measurement": "malachite green phosphate release", "setting": "DndI [2]", "value": "DndI exhibited an intrinsic ATPase activity"}
    ]},
    {"molecule": "70 bp GAAC/GTTC EMSA DNA (PT-free) (dsDNA) DNA 1: GCTGCAACAGGATGCCAATAAGACCAAAAAAACCAGCCAGCAAGCAGAGAACGACGAGAGCTGGCAATCT DNA 2: AGATTGCCAGCTCTCGTCGTTCTCTGCTTGCTGGCTGGTTTTTTTGGTCTTATTGGCATCCTGTTGCAGC", "values": [
      {"measurement": "Kd", "setting": "DndI R87A", "value": 3.3, "unit": "µM"},
      {"measurement": "Kd", "setting": "DndI [3]", "value": 9.31, "unit": "µM"},
      {"measurement": "Kd", "setting": "DndI CTD", "value": 0.66, "unit": "µM"}
    ]}
  ]
}
